Assay results reported in US8252338B2, “Synthetic LDL as targeted drug delivery vehicle” (The Regents of the University of California, priority 2005, dated 2012).

Tests used:
[1] = Phospholipid binding of peptides, PC-cholate micelles, cholate dialysis; format: physicochemical; settings: overnight incubation, dialysis (cutoff 10,000 MW)
Description: The ability of the peptides to bind phospholipids was tested first. Phospholipid binding was used as a rapid screen for a peptide's ability to bind to the surface of a synthetic LDL-like nanoparticle. To make phospholipid complexes with peptides, egg yolk phosphatidylcholine (PC) and the cholate dialysis method were used similarly to what was previously employed to make synthetic nascent HDL particles (Segrest, J. P. et al., J. Lipid Res 33:141-166 (1992)). The PC-cholate micelles were incubated with the peptide overnight and then extensively dialyzed (dialysis membrane cutoff, 10,000 MW) to remove cholate and unbound peptide. The percent bound peptide, i.e., peptide that remains associated with the lipid micelles, was determined for each peptide and was 8%, 15% and 33%, for B-peptide, 11-A chimera and 18-A chimera, respectively. The B-peptide had poor lipid binding ability while the 11-mer peptide has low lipid binding compared to the 18-A chimera.

[2] = tested on: HeLa cells; assay: Cell killing by MTT assay, HeLa cells; format: cell-based, human; settings: concentrations up to 50 μM
Description: (§1) sLDL-PO was added to HeLa cells as shown in FIG. 16 and to SF-767 glioblastoma multiforme tumor cells (shown in FIG. 17) at concentrations between 0.05 and 50 μM and cell killing was determined by the MTT assay.

[3] = tested on: SF-767 cells; assay: Cell killing by MTT assay, SF-767 cells; format: cell-based, human; settings: concentrations up to 10 μM
Description: as §1
Cells were grown as in Example 3.

[4] = Peptide association with lipid microemulsion after dialysis; format: physicochemical; settings: 1.27 mg/ml peptide; PL:TO:CO 3:2:1; after extensive dialysis against Tris-saline buffer
Description: The 18-A chimera was utilized for making core-containing synthetic LDL. The procedure reported by Baille et al. (Baillie, G. et al., J Lipid Res 43:69-73 (2002)) was used with modifications. Microemulsions were formed using egg yolk phospholipid (PL), triolein (TO) and cholesteryl olein (CO) (mole ratio of 3:2:1) and 20 μM butylhydroxytoluene (BHT); the microemulsions were extruded through an Avanti miniextruder first using 100 nm polycarbonate filters followed by 30 nm polycarbonate filters. The lipid emulsions were incubated with 1.27 mg/ml 18-A chimera and lipid association determined after extensive dialysis against Tris-saline buffer to remove uncomplexed peptide. Approximately 85% of the added synthetic peptide remained associated with the lipid emulsions.
Characterization: Composition of particles was determined using the Markwell modification of the Lowry protein assay and enzymatic colorimetric assays for PL, TO and CO (Wako Kits). Size was determined by column chromatography using a Superose 6 fast protein liquid chromatography (FPLC) column. Samples were run at a flow rate of 0.5 mL/min and absorbance read at 280 nm. Referring now to FIG. 4, the composition of the synthetic LDL was characterized as 32% peptide, 68% lipid. 82%±9% of peptide (n=11) remained bound after dialysis. […]

[5] = Density distribution of lipidated 18-A chimera by sequential ultracentrifugation; format: physicochemical
Description: Studies were carried out to determine (1) whether the synthetic LDL represent a single population of particles and (2) whether the LDLR binding domain remains accessible after the peptide is associated with the lipid. To determine what types of synthetic LDL particles were generated, the lipidated 18-A chimera was subjected to sequential ultracentrifugation at density (d) 1.063 g/ml to isolate particles equivalent to, or less dense than, native LDL. Subsequently the solution was adjusted to d 1.21 g/ml to isolate particles in the d 1.063-1.21 g/ml range and those in the d>1.21 g/ml range. The latter particles are considered lipid-poor complexes while the d 1.063-1.21 particles are in the size and density range of high density lipoproteins (HDL). […] This was an unexpected finding but is very encouraging since smaller sized complexes will be better able to diffuse through the tumor mass than larger particles. The formation of small high density complexes is reproducible since it occurred with two separate batches of synthetic 18-A chimera complexes.
To determine the distribution of lipid complexes in various density classes, sequential ultracentrifugation techniques were employed (Lindgren, F. T. et al., In Blood Lipids and Lipoproteins: Quantification, Composition and Metabolism (Nelson, G. J., ed.) pp. 181-274, John Wiley, New York (1972)); this preparative procedure is routinely used in our laboratory and is the classical method for isolation of LDL and other lipoproteins. The first centrifugation was performed at d 1.006 g/ml to isolate large lipid complexes with little peptide; the second spin was done at 1.006-1.063 g/ml to isolate particles in the LDL.size and density range; the third spin at d 1.063-1.21 g/ml isolates particles in the HDL size and density range. The d>1.21 g/ml fraction was isolated to assess how much of the peptide is in the lipid-poor form. All ultracentrifugal isolations use the Beckman TL100 ultracentrifuge for rapid isolations (all fractions can be obtained within 24 hr). […]

YKLEGTTRLTRKRGLKLATALS [B-peptide, reference compound]
percent bound peptide (peptide that remains associated with the lipid micelles) [1]: 8%

PALEDLRQGLLPRLTRKRGLKL [11-A chimera]
percent bound peptide (peptide that remains associated with the lipid micelles) [1]: 15%

CCCCCCCC/C=C\CCCCCCCC(=O)O[C@@H](C(=O)O[C@H]1C[C@@]2(O)[C@@H](OC(=O)c3ccccc3)[C@@H]3[C@]4(OC(C)=O)CO[C@@H]4C[C@H](O)[C@@]3(C)C(=O)[C@H](OC(C)=O)C(=C1C)C2(C)C)[C@@H](NC(=O)c1ccccc1)c1ccccc1 [Paclitaxel oleate]
HeLa cell killing [2]: ineffective
SF-767 cell killing [3]: ineffective
initial PO added remained bound to the microemulsion after processing (PC:TO:CO:PO 3:2:1:0.5, centrifuged and dialyzed): 48±3%
increase in incorporation into microemulsion as compared to paclitaxel (equimolar amounts added to initial lipid mixture (FIG. 14A)): 4-5 fold
initial PO concentration at which incorporation appears to saturate (varying PO in the initial lipid mixture (FIG. 13)): around 0.33 mg/mL

DWLKAFYDKVAEKLKEAFRLTRKRGLKLA [18-A chimera]
added synthetic peptide remaining associated with the lipid emulsions [4]: Approximately 85%
density distribution (percent) of 18-A chimera ([5]; d 1.063-1.21 g/ml (size and density range of HDL, small lipid particles)): 58%
density distribution (percent) of 18-A chimera ([5]; d < 1.063 g/ml): 13%
density distribution (percent) of 18-A chimera ([5]; d > 1.21 g/ml (lipid-poor)): 29%
percent bound peptide (peptide that remains associated with the lipid micelles) [1]: 33%
